# Data published in paper PMC4029776, “Transiently Produced Hypochlorite Is Responsible for the Irreversible Inhibition of Chlorite Dismutase” (Biochemistry, 2014).
# B1: NdCld (chlorite dismutase from "Candidatus Nitrospira defluvii") (Nitrospira defluvii) (protein)
# chain: ADREKLLTESGVYGTFATFQMDHDWWDLPGESRVISVAEVKGLVEQWSGKILVESYLLRGLSDHADLMFRVHARTLSDTQQFLSAFMGTRLGRHLTSGGLLHGVSKKPTYVAGFPESMKTELQVNGESGSRPYAIVIPIKKDAEWWALDQEARTALMQEHTQAALPYLKTVKRKLYHSTGLDDVDFITYFETERLEDFHNLVRALQQVKEFRHNRRFGHPTLLGTMSPLDEILEKFAQ
# Columns and labels:
# [1] = system: Arg183; test: kinetics; settings: ferric heme enzyme, chlorite turnover (inferred from context); cited from earlier work
# [2] = substrate: [O-][Cl+]O; test: Clark-type O2 electrode, initial rates, Michaelis-Menten; format: biochemical, Nitrospira defluvii; settings: pH 7.0, 50 mM phosphate, 30 °C, 50 nM enzyme, NaClO2 10-1000 μM
Molecule,pKa [1],Km [2] [µM],kcat [2] [s^–1]
Chlorite dismutase (DaCld) (Dechloromonas aromatica),∼pH 6.5,,
B1,,138 ± 20,83 ± 4
